# Reference: paper PMC11596305, “A strategy to design protein-based antagonists against type I cytokine receptors” (PLOS Biology, 2024)
# What was measured:
# Assay in all cases: SPR; steady-state fitting of TPOR binding; further details in S1 Methods (not shown)
# Settings in all cases: both partners purified
# [1] = biological target: buto_a3
# [2] = biological target: buto_a3_t2
# [3] = biological target: Thrombopoietin receptor (TPOR) (UniProt P40238 26-635)
Kd [1] [µM],Kd [2] [µM],Kd [3] [µM],Binder
10.6 ± 1.49,0.88 ± 0.16,–,"Thrombopoietin receptor (TPOR) (receptor, The construct is described only in S1 Methods. The extracellular domain after the signal peptide is assumed as the SPR receptor; glycosylation is possible.) QDVSLLASDSEPLKCFSRTFEDLTCFWDEEEAAPSGTYQLLYAYPREKPRACPLSSQSMPHFGTRYVCQFPDQEEVRLFFPLHLWVKNVFLNQTRTQRVLFVDSVGLPAPPSIIKAMGGSQPGELQISWEEPAPEISDFLRYELRYGPRDPKNSTGPTVIQLIATETCCPALQRPHSASALDQSPCAQPTMPWQDGPKQTSPSREASALTAEGGSCLISGLQPGNSYWLQLRSEPDGISLGGSWGSWSLPVTVDLPGDAVALGLQCFTLDLKNVTCQWQQQDHASSQGFFYHSRARCCPRDRYPIWENCEEEEKTNPGLQTPQFSRCHFKSRNDSIIHILVEVTTAPGTVHSYLGSPFWIHQAVRLPTPNLHWREISSGHLELEWQHPSSWAAQETCYQLRYTGEGHQDWKVLEPPLGARGGTLELRPRSRYRLQLRARLNGPTYQGPWSSWSDPTRVETATETAW"
–,–,4.09 ± 1.84,"Thrombopoietin (TPO), bacterially expressed (ligand, expressed in E. coli, non-glycosylated; N-terminal His tag/thrombin site omitted / The construct is described only in S1 Methods. The extracellular domain after the signal peptide is assumed as the …) SPAPPACDLRVLSKLLRDSHVLHSRLSQCPEVHPLPTPVLLPAVDFSLGEWKTQMEETKAQDILGAVTLLLEGVMAARGQLGPTCLSSLLGQLSGQVRLLLGALQSLLGTQLPPQGRTTAHKDPNAIFLSFQHLLRGKVRFLMLVGGSTLCVRRAPPTTAVPS"
